From the RNAGym collection of RNA variant scans (doi:10.1073/pnas.2313332121)

B1: TPR t1 (parent)
chain: GACCAAUCUGCCCUCAGAGCUCGAGAACAUCUUCGGAUGCAGAGGAGGCAGGCUUCGGUGGCGCGAUAGCGCCAACGUCCUCAACCUCCAAUGCAUCCCACCACAUGAUGAUGCCUGAAGAGCCUUGGUUUUUUG

Variants of: B1
Experiment: polymerase ribozyme fitness, log enrichment relative to wild type (log ratio); higher = more active; in vitro selection for triplet polymerase activity
How it was run: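 Mutant libraries of both subunits of a heterodimeric triplet polymerase ribozyme were PCR-built, transcribed, and selected once in triplicate, with frozen incubation at −7 °C and capture of gel-excised extended constructs on streptavidin beads before RT-PCR. Illumina sequencing of input and output libraries was filtered to genotypes with ≥10 input reads and ≥1 read per output. Fitness is the logarithm of genotype enrichment over wild-type enrichment, using inverse-variance-weighted replicate averages. The logarithm is base 2.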

Row | Variant | polymerase ribozyme fitness (log ratio)
1 | GACCAAUCUGCCCUCAGAGCUCGAGAACAUCUUCGGAUGCAGAGGAGGCAGGCUUCGAUGGCGCGAUAGCGCCAACGUACUCAACCUCCAAUGCAUCCCACCACAUGAUGAUGCCUGAAGAGCCUUGGUUUUUUG [G58A C79A] | -1
2 | GACCAAUCUGACCUCAGAGCUCGAGAACAUCUUCGGAUGCAGAGGAGGCAGGCGUCGGUGGCGCGAUAGCGCCAACGUCCACAACCUCCAAUGCAUCCCACCACAUGAUGAUGCCUGAAGAGCCUUGGUUUUUUG [C11A U54G U81A] | -2.11
3 | GACCAAUCUGCCCUCAGAGCUCGAGAACAUCUUCGGAUGCAGAGGAGGCAGGCUUAGGUGGCGCGAUAGCGCCAACGUCCUCAACCUCCAAUGCAUCCCACCACAUGAUGUUGCCUGAAGAGCCUUGGCUUUUUG [C56A A111U U129C] | -4.47
4 | GACCAAUCUGCUCUCAGAGCUCGAGAACAUCUUCGGAUGCAGAGGAGGCAGGCUUCGGUGGCGCGAUAGCGGCAACGUCCUCAACCUCCAAUGCAUCCCACCACAUGAUGAUGCCUCAUGAGCCUUGGUUUUUUG [C12U C72G G117C A119U] | -1
5 | GACCAAUCUGUCCUCAGAGCACGAGAGCAUCUUCGGAUGCAGAGGAGGCAGGCUUCGGUGGCGCGAUAGCGCCAACGUCCUCAACCUCCAAUGCAUCCCACCACGUGAUGAUGCCUGAAGAGCCUUGGUUUUUUG [C11U U21A A27G A105G] | -4.61
6 | GACCAAUCUGCCGUCACAGCUCGAGAACAUCUUCGGAUGCAGAGGAGGCAGGCUUCGGUGGCGCGAUAGCGCCAACGUCCUCAACCUCCAAUGCAUCCCACCACAUGAUGAGGCCGGAAGAGCCUUGGUUUUUUG [C13G G17C U112G U116G] | -4.51
7 | GACCAAUCUGCCCUCAGAGCUCGAGAACAUCUUCGGAUUCAGAGGAGGCAGGCUUCGGAGGCGCGAUAGCGCCAACGUCCUCAACCUCCAAUGCAUCUCACCACAUGAUGAUGCCUGAAGGGCCUUGGUUUUUUG [G39U U59A C98U A121G] | 0.547
8 | GACAAAUCUGCCCUCAGAGCUCGAGAACAUCUUCGGAUGCAGAGGAGGCAGGCUUCGGUGGCGCGAUAGCGCCAACGUCCUCAACCUCCAAUACAUCCCACCACAUGAUGAUGCCUGAAGAGCCUUGGUUUUUUG [C4A G93A] | -1.73
9 | GACCAAUAUGCCCUCAGAGCUCGAGAACAUCUUCGGAUGCAGAGGAGGCAGGCUUCGGUGGCGCGAUAGCGCCAACGUCCUCAACCUCCAAUGCAUCCCACCACAUGAUGAUGUCUGAAGAGCCUCGGUUUUUUG [C8A C114U U126C] | -2.4
10 | GACCAAUCUGCCCUCAGAGCUCGAGAACAUCUUCGGAUGCAGAGGAGGCAGGCUUCGGUGGCGCGAUAGCGCCAACGUCCUCAACCUCCAAUGCAUCCCACCACAUGAUGAUGCCUGAAGAGCCUGGGUUUUUUG [U126G] | -1.7
11 | GACCAAUCUGCCCUCAGAGCUCGAGAACAUCUUCGGAGGCAAAGGAGGCAGGCUUCGGUGGCGCGAUAGCGCCAACGUUCUCAACCUCCAAUGCAUCCCACCACAUGAUGAUGCCUGAAGAGCCUUGGUUUUUUG [U38G G42A C79U] | -2.56
12 | GACCAAUCUGCCCUCAGAGCUCGAGAACAUCUUCGGAUGCAGAGGAGGCAGGCUUCGGUGGCGCGUUAGCGCCAACGUCCACAACCUCCAAUGCAUCCCACCACAUGAUGAUGCCUGAAGAGCCUUGGUUUUUUG [A66U U81A] | -1.96
13 | GACGAAUGGGCCCUCAGAGCGCGAGAACAUCUUCGGAUGCAGAGGAGGCAGGCUUCGGUGGCGCGAUAGCGCCAACGUCCUCAACCUCCAAUGCAGCCCACCACAUGAUGUUGCCUGAAGAGCCUUGGUUUUUUG [C4G C8G U9G U21G U96G A111U] | -3.56
14 | GACCAAUCUGCCCUCAGAGCUCGAGAACAUCUUCGGAUGCAGAGGAGGCAGGCUUCGGUGGUGCGAUAGCGCCAACGUCCUCAACCUCCAAUGCAUCCCACCACAUGAUGAUGCCUGAAGAGCCUUGCUUUUCUG [C62U G128C U133C] | -2.74
15 | GACCAAUCUGCCCUCAGAGUUCGAGAACAUCUUCGGAUGCAGAGGAGGCAGGCUUCGGUGGCGCGAUAACGCCAACGUCCUCAACCUCCAAUGCAUCCCACCACAUGAUGAUGCCUGAAGAGCCUUGGUUUUUUG [C20U G69A] | -3.34
16 | GACCAAUCUGCCCUCAGAGCUCGAGAACAUCUUCGGAUGCAGAGGAGGCAGGCUUCGGUGGUGCGAUAGCGCCAACGACCUCAACCUCCAAUGCACCCCACCACAUGAUGAUGCCUGAAGAGCCUUGGUUUUUUG [C62U U78A U96C] | -0.0957
17 | GACCAAUCUGCCCUCAGAGCUCGAGAACAUCUUCGGAUGCAGAGGAGGCAGGCUUCGGUGGCGCGAUAGCGCCAACGUCCUCAAGCUCCAAUGCAUCCCACCACAUGAUGACGCCUGAAGAGCCUUGGUUUUUUG [C85G U112C] | 0.41
18 | GACCAAUCUGCGCUCAGAGCUCGAGAACAUCUUCGGAUGCAGAGGAGGCAGGCUUCGGUGGCGCGAUAUCGCCAACGUCCUCAACCUCCAAUGCAUCCCACCACAUGAUGAUGCAUGAAGAGCCUUGGUUUUUUG [C12G G69U C115A] | 0.211
19 | GACCAAUCUGCCCUCAGAGCUCGAGAACAUCAUCGGAUGCAGAGGAGGCAGGCUUGGGUGGCGCGAUAGCGCCAACGUCCUCAACCUCCAAUGCAUCCCACCACAUGAUGAUGCCUGAAGAGCCUUGGUUUUUUG [U32A C56G] | -3.79
20 | GACCAAUCUGCCCUCAGAGCUCGAGAACAUCUUCGGAUGCAGAGGAGGCAGGCUUUGGUGGCGCGAUAGCGCCAACCUCCUCAACCUCCAAUGCAUCCCACCACAUGAUGAUGCCUGAAGAGCCUUGGUUUUUUG [C56U G77C] | -0.361
21 | GAUCAAUCUGCCCUCAUAGCUCGAGAACAUCUUCGGAUGCAGAGGAAGCAGGCUUCGGUGGCGCGAUAGCGCCAACGUCCUCAACCUCCAAUGCAACCCACCACAAGAUGAUGCAUGAAGAGCCUUGGUGUUUUG [C3U G17U G47A U96A U106A C115A U130G] | -2.25
